Columns and labels:
[1] = biological target: T1, recombinant mRGMc-HIS (R&D) (mouse, UniProt Q7TQ32 33-393, limits assumed); assay: ELISA, coated mRGMc-HIS
T1 construct: Bought from R&D; also called hemojuvelin; not shown: HIS tag
T1 sequence (looked up): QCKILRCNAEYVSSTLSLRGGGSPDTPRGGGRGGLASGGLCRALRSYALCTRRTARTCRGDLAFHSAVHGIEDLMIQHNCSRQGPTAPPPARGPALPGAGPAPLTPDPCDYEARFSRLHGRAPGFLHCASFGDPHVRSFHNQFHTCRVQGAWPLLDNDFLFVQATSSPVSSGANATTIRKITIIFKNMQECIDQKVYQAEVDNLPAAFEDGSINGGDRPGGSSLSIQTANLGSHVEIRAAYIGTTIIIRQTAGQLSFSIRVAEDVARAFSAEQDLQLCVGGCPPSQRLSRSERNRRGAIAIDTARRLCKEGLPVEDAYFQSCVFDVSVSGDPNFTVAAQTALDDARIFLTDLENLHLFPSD
Experimental: (§1) To examine RGMa/RGMb/RGMc and PD-L2 interaction, 96-well ELISA plates were coated with 2 or 5 μg/ml of recombinant mRGMa-HIS, mRGMb-HIS, mRGMc-HIS, or hRGMb-HIS (R&D). Then, serial dilutions of mPD-L2-hIgG1/IgA, mPD-L2-mIgG2a/IgA, hPD-L2-mIgG2a or control-Ig fusion proteins were added and incubated for 1h at 37° C. Fab₂ goat anti-hIgG-HRP (Jackson ImmunoResearch Laboratories) or rat anti-mIgG2a-HRP (BD Biosciences) at 1:1000 or 1:10000 were used for detection.

[2] = biological target: T2, mouse RGMb (mRGMb) expressed on transfected cells (mouse, UniProt Q7TQ33 49-415); assay: flow cytometry on mRGMb transiently transfected COS cells
T2 construct: whole, on cells; Also used for mRGMb in cell lysates (Western blot); also called DRAGON; 300-mRGMb cells
T2 sequence (looked up): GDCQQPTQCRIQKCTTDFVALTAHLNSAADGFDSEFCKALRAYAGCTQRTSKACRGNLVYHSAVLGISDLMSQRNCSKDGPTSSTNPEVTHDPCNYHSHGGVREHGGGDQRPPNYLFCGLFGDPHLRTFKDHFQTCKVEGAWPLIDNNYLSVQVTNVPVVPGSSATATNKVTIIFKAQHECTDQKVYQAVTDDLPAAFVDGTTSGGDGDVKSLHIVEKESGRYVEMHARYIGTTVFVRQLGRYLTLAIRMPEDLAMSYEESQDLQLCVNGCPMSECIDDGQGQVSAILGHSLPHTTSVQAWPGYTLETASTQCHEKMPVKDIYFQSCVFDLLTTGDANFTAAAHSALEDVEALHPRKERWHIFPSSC
Experimental: A panel of murine activated lymphocyte cDNA expression libraries were transiently transfected into COS cells using DEAE-Dextran or Lipofectamine as facilitator (Freeman et al. (1989) J. Immunol. 143:2714-2722). After 44 hours, COS cells were harvested and panned on mPD-L2-mIgG2a/IgA coated petri plates. Episomal DNA was recovered and electroporated into E. coli DH10B/P3. Spheroplast fusion was used to reintroduce the plasmids into COS cells for subsequent rounds of expression and panning. Before the second and third rounds, COS cells expressing PD-1 were removed by incubating with PD-1 mAb followed by depletion with goat anti-rat IgG magnetic beads. After the third round of panning, individual plasmids were transfected into COS cells and binding of PD-L2-Ig to RGMb was verified by flow cytometry on mRGMb transiently transfected COS cells. At least four independent mRGMb cDNA clones were isolated.

[3] = biological target: T3, recombinant mRGMb-HIS (R&D) (mouse, UniProt Q7TQ33 49-415, limits assumed); assay: ELISA, coated BMP-2/4, mRGMb-HIS and PD-L2-Ig at 10 ug/ml, detection of the hIgG part
T3 construct: Bought from R&D; not shown: HIS tag
T3 sequence (looked up): T2 sequence (looked up)
Experimental: To determine if RGMb binds PD-L2 and BMP-2/4 simultaneously, 96-well ELISA plates were coated with BMP-2/4 as above. mPD-L2-hIgG1/IgA, mPD-L2-hIgG (R&D), mPD-L1-hIgG (R&D) or control-Ig fusion proteins at 10 μg/ml were preincubated with 10 μg/ml mRGMb-HIS (R&D) or buffer alone for 15 min. at room temperature (RT), then added to the plates and incubated for 1h at 37° C. Alternatively, 10 μg/ml mRGMb-HIS (R&D) or buffer alone was added first to the plates and incubated for 1h at 37° C. After wash, mPD-L2-Ig or control-Ig fusion proteins were added and incubated for 1h at 37° C. Fab₂ goat anti-hIgG-HRP (Jackson ImmunoResearch Laboratories) at 1:10000 was used for detection.
To test if RGMb can bind both PD-L2 and BMP at the same time, an ELISA was performed to analyze the binding capacity of PD-L2-Ig fusion protein to immobilized BMP-2/4 in the presence or absence of RGMb. PD-L2 could not directly bind to BMP-2/4, but in the presence of RGMb could form a complex with BMP when RGMb and PD-L2-Ig were added simultaneously (FIG. 4A-4B) or sequentially to BMP-2/4.

[4] = biological target: T4, recombinant hRGMb-HIS (R&D) (human, UniProt Q6NW40 46-413); assay: ELISA, coated hRGMb-HIS, PD-L2-Ig in solution
T4 construct: Bought from R&D; not shown: HIS tag
T4 sequence: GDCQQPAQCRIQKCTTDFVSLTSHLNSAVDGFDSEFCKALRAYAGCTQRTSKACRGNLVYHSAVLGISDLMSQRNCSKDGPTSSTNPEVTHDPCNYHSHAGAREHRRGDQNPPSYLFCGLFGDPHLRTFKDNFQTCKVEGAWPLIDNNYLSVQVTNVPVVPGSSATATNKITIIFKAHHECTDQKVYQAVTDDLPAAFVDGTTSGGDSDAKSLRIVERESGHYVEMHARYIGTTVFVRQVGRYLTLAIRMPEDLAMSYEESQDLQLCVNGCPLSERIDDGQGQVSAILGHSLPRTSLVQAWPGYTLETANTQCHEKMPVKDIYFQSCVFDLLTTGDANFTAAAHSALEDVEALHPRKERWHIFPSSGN
Experimental: as §1

[5] = biological target: T5, recombinant mRGMa-HIS (R&D) (mouse, UniProt Q6PCX7 48-427, limits assumed); assay: ELISA, coated mRGMa-HIS
T5 construct: Bought from R&D; not shown: HIS tag
T5 sequence (looked up): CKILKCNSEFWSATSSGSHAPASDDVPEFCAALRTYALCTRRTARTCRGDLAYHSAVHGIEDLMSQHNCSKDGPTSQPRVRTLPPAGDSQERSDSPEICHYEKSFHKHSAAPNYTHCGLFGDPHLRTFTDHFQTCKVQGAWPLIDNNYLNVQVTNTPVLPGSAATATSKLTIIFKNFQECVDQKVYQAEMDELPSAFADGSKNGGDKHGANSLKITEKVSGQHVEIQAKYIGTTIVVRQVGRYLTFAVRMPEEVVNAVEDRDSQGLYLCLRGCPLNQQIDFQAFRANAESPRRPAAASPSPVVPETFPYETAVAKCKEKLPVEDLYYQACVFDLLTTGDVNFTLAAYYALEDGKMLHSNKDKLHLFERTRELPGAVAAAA
Experimental: as §1

- binding result [1]: no binding
- binding result [2]: binds
- binding result [3]: binds
- binding result [4]: binds
- binding result [5]: no binding
B1: mPD-L2-Ig fusion protein (construct not told at the result) (Fc fusion, mouse, UniProt Q9WUL5 20-221, looked up)
chain: LFTVTAPKEVYTVDVGSSVSLECDFDRRECTELEGIRASLQKVENDTSLQSERATLLEEQLPLGKALFHIPSVQVRDSGQYRCLVICGAAWDYKYLTVKVKASYMRIDTRILEVPGTGEVQLTCQARGYPLAEVSWQNVSVPANTSHIRTPEGLYQVTSVLRLKPQPSRNFSCMFWNAHMKELTSAIIDPLSRMEPKVPRTW
notes: extracellular domain; not shown: Ig part: the methods name mPD-L2-hIgG1/IgA, mPD-L2-mIgG2a/IgA and mPD-L2-hIgG (R&D)

From US20150299322A1 (Dana-Farber, published 2015)
